Assay results from the nanobody polyreactivity screen of Harvey et al. (2022).

test: yeast display, Sf9 membrane polyspecificity reagent, FACS + sequencing; frameworks hold sequencing errors
In short: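 Nanobodies from a synthetic yeast display library (Saccharomyces cerevisiae BJ5465), induced 36–48 hours with galactose, were stained 1 hour at 4 °C with 10% biotinylated, detergent-solubilized Sf9 membrane reagent, enriched on streptavidin microbeads, then FACS-sorted. Anti-HA (expression) and streptavidin (reagent binding) fluorescence set low and high (top ~1%) gates. Polyreactivity labels come from the gate of origin. Genes were colony-PCR amplified, MiSeq 2 × 250 sequenced and filtered by CDR length.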

Row | Sequence | polyreactivity (PSR sort gate)
1 | QDQLVESRGVLVQAGGSLRLTCAASGRTFYLNAMGWNRQATGKEREFVAAITWSSGSTYYADSVKGRFTISRDNAMNTVYLQMNSLKPEDTAVYYCAAAGRWSAYMYSWGQGTQVTVSS | high polyreactivity
2 | QDQLVESVGGLDQAGGSLPLSCDASGSIFPDYAMGWYRPAPGKERELVAAITSSGSTNNADSVKGLFTISRDNAKNTVYLQMNSLNPEDTAVYYCNAVVVQEESGYTRYDYWGQGTQVTVSS | low polyreactivity
3 | QDQLVESVGGLVQAGGSLRLSCAASGRTIDPNAMGWYRQAPGKERELVAAITRTGVRTYYADSVKGRFTISRDNAKNTVYLQMNSLKPEDTAVYYCAASYSGRQDRYPHYDYWGQGTQVTVSS | low polyreactivity
4 | QDQLVESVGGLVQAGGSLRLSCAASGSIFDQNAMGCSRHAPGKESELVAAITRGGSTKYADSVKGRFTISRDNAKNTVYLQMNSLKPEDTAVYYCARTDRRRYQPYEYWGPGTQVTVSS | low polyreactivity
5 | QDQLVESVGGLVQAGVSLRLSSASSGRTFWAYAMGWYRQAHGKERELVAAISRNGGSTYYADSVKGRFTISRDHAKNTVYLQMNSLKPEDTAVYYCAAESRYYYELGYWGQGTQVTVSS | high polyreactivity
6 | QDQLVETGGGLVQAGCSLRLSCAASGSIFTGYTMGWYRQAPGNEREFVAAIRATGGSTYYADSVKGRFTISRDNAKNTVYLQMNSLKPEDTAVFYCAVRSGGGSVRKRYGYWGQGTQVTVSS | high polyreactivity
7 | QDQLVETGGGLVQAGGCLRLSCAASGRNFFGYAMGWYRQAPGTERELLAAITQSGGRTYYADSVKGRFTISRDNAKNTVYLLMNSQKPEDTAVYYCAATWLGTRNLVHITLYYWGQGTQVTVSS | low polyreactivity
8 | QDQLVETGGGLVQAGGSLRISCADSGFTFGVNAMGWYREAPGKERELVAVITSGGNTYYADSVKGRFTISRDNAKNTDYCQMNSLKPEDTAVYYCAAYGRDSWDRDYWGQGTQVTVSS | low polyreactivity
9 | QDQLVETGGGLVQAGGSLRLSCAASGIIFYPNAMGWYRQAPGKERELVAAISWRSGSTYYADSVKGRFTISRDNAKNTVYLQMNSLKPEDTAVYYCAADRRRSYIWRYDYWGQGTQVTVSS | low polyreactivity
10 | QDQLVETGGGLVQARGSLRLSCAASGITFDKYAMGWYRQAPGKERELVAAISGSDGSTYYADSVKGRFTISRDNAKNTVYLQMNSLKQEDTSVYYCAAESEYAGTFEYDYWGQGTQVSVSS | low polyreactivity
11 | QDQLVETVGVLDKAGGSLRLSCAASGRTFAIYAMAWYRQAPGKEREFVAASSWSGGDSYYADSVKGRFTISRDNAKNSVYLQMNSLKPEHTAVYYCAARDNDYEGRYLQYDLDYWGQGTQVTVST | low polyreactivity
12 | QDQLVKSGGGLVQAGGSLLLSCAASGHTFSGYVMGWYRPAHGKERELVAAIRSGGSTYYADSVKGRFTISRDNAKKTVYLQMNSLKPEDTAVYYCAKSVTRYRTSAYGYWGQGTQVTVSS | high polyreactivity
13 | QDQLVQSRGGLVQAGGSLRISSAASGGTYFGYAMGWKRQAPGKERELVAAIRWSDGRTYYADSVKGRFTISRDNAKYTVYLQMNSLNPEDTAVYYCNADDARLFDYWGQGTQVTVSS | low polyreactivity
14 | QDQLVVSGGGLVQAGGSLRLSCAAYGFIVRSYDMGWYIQAPGKEREMVAAITSDVNSYYADSVKGRFTISRDNAKNTVYLQMNSLKPEDTAVYYFNADAVVYRDYQDYDYWGQGTQVTVSS | low polyreactivity
15 | QDQLVYSGGGLVQAGGSLSISCASSVSTFGGYAMGWYRQAPGKERELVSAITWSAGSTYADSVKGRFTISRDNAKNTVYLQMTSLKPEDTAVYYCAAYPYVGYVSLSAYDYWGQGTQVTVSS | low polyreactivity
16 | QDQPVESGGGLVQAGGRLRLSCAASGIICSGYAMGWYRQAAGKERELVAAISNDGTRTYYADSVKGRFTISRDNAKNTVYLQMNSLKPEDTAVYYCAAYSRLNVLGYDYWGQGTQVTVSS | high polyreactivity
17 | QEQLHESGGGQVQAGGSLLLSCAASGNIIRYYYIGCYRQAPGKEPELVAAITYGTSTNYADSVKGRFTISRDNAKNTVYLQMNSLKPEDTAVYYCAVDVNYGDPLDNWGQGTQVTVSS | high polyreactivity
18 | QEQLQESGGCLVQAGCSLRLSCAPSGTISDSGLMGWYRQPQGKERELVAGISSGGITNYADSVKGRLTISRDNAKNTVYLQMNSLKPEDTAVYYCAADSPVSVTADDGYWGQGTQVTVSS | low polyreactivity
19 | QEQLQESGGGLVQAGGSLRLSCAASGSIFHLHIMCRYRQAPGKERESVAAISYGTSTYYADSVKGRFTICRDNAKNTVYLQMNSPKPDDTAVYYCAALFLVSKHHHYWGEGTQVTVSS | low polyreactivity
20 | QEQLQESGGGQVQAGGSLLLSCAASGNIIRYYYMGWYRQAPGKERELVAAITYGTSTNYADSVKGRFTISRDNAKNTVYLQMNSLKPEDTAVYYFAVDVNYGDPLDNWGQGTQVTVSC | high polyreactivity
21 | QEQLVDSGGGLVQAGGSLRLSCAASVRIFGRYVMGWYRQAPGKERELVAAITSRDDSTYYADSVKGRFTISRDNAKNTVYLQMNSLKPEDTAVYYCAATWGRGYDYCGQGTQVTVSS | high polyreactivity

Row | Sequence | polyreactivity (PSR sort gate)
22 | QEQLVESGGGLDQAGGSLRLSCAASGSTFYAYAMGWSRQATGKETELVAAISSDGTNYADSVKGRFTISRDNAKNTVYLQMNCLKPEDTAVYYCAADLLLTSSQDNDYWGQGTQVTVSS | low polyreactivity
23 | QEQLVESGGGLVQAGGSLRISCAASGFIFGFYAMGWYRQAPGKERELVAAISWSAGSTYFADSVMGRFTISRDNAKNTVYLQMYSLKPEDTAVYYCAAYFDFRDDAVTYDYWGQGTQVTVSS | low polyreactivity
24 | QEQLVESGGGLVQAGGSLRLSCAASGRIFPYYAMGWYRPAPGKERELVASITARGGSTYYADSVKGRFTISRDNAKNTVYLQMNSLKPEDTAVYYCATRGYAWSSDKFGYWGQGTQVTVSS | high polyreactivity
25 | QEQLVESGGGLVQAGGSLRLSCAASGSIFATYAMGWNRQAPVKERELVAAITSSDGSTNYADSVKGRFTISRDNAKNTVYLLMNSLKPEDTAVYYCAADGTVRSLGRYYHWGQGTQVTVSS | low polyreactivity
26 | QEQLVESGGGLVQAGGSLRLSCAAYGSTYNSYVMGWNRQAPVKERELVAAISTSGGRTYYADSVKGRFTISRDNAKNTVYLKMISLKPEDTAVYYCNRVFLKYYESTHWRDYWGQGTKVTVSS | high polyreactivity
27 | QEQLVESGGGLVQAGGSLRLSGAASGGIFGRYAMGGYRQAPGKEMELVAAISKRGGSTYYADSVKGRFTISRDNAKNTVYLQMNSLKPEETAFYYCNAAQSVELGYDYWGQGTQVTVSS | high polyreactivity
28 | QEQMQEGGGGLVQAGGSLRLICASSGYNFNGDWMGWNRQAPGKERELVATINYGATTNYADSVKGRFTISRDNAKNTVYLQMNSLKPEDTAVYYCAVGGHGAQLYVYWGQGTQVTVSN | high polyreactivity
29 | QFHLVESGGGLVQAGGSLRLSCAAAGYTYGYYTMGWYRQAPGKERELVAAIDSGGRTNYADSVKGRFTISRDNAKNTVYLQMNSRKPEDTAVYYCAAESPLYWVDDFESGWRYYYWGQGTQVTVSS | low polyreactivity
30 | QFHLVETGGGLVQAGGSLRLSCAASGSTFSDYAMGSYRQAPGKERELVAGITETGTTTYYADSVNGRFTISRDNAKNTDYLQINSLKPEDTAVYYCAAFLVTYYYGTGYYSYDYWGQGTQVTVSS | low polyreactivity
31 | QFKLVESGGGLVQAGGSLRLSCAASGFTFRLVKAMRWYRQAPGKERELVAGINSGDITYYADSVKGRFTISRDNAKNTVYLQMNSLKPEDTAVYYCAARVVYGYGHYDYWGQGTQVTVSS | low polyreactivity
32 | QFQIEESGGGLVQAGGSLRLSCAASGNTFYWNAMGWYRQAPGKDRELVAAISTTGVSTYYADSVKGRFTISRDNAKITVYLQMNSLKPEDTAVYYCAAEIIGYHTIYDYWGQGTQVTVSS | low polyreactivity
33 | QFQLGESGGGLVQAGGSLRLSCAASGSTFSGYTKGWYRQARGKEREFVAAISSRGGSTYYADSVKGRFTISRDNAKNTVYLQMYRLNPEDTAVYYCAAKVCARVDGRQFRMEYWGQGTQVTVSS | high polyreactivity
34 | QFQLVDSVGGLDQAGGSLRLSSDASGLTLIGNAMGWYRQAPVKERELVASITIGGTTYADSVKGRFTISRDNAKNTVYLQMNSLKPEDTEVYYCAADFSSFSIDTGYDYWGQGTQVTVSS | low polyreactivity
35 | QFQLVESAGGLFQAVGSHRLSCAASGRTFTQYAMGWYRQAPGKERELVAAISWRGGSTYYADSVKGRFTISRDNAKNTVYLQMNSLKPEDTAVYYCAKRYFRGYPLYDYWGQGTQVTVSS | high polyreactivity
36 | QFQLVESCGGLVQAGGTLRLSCAASGFIFDIYERGWYRQAPGKERELVAAITWNSGSTHYADSVKGRFTISRDNAKKTVYLQMNSLNPDDTAVYYCAAVEVTYAYYPYDYCGQGTQVTVSS | low polyreactivity
37 | QFQLVESGGCLVQAGGSLRLSCAASGFIFLQYAMGWYRQAPGKETELGAAITSGGGTNYEDSVKGRFTISRDNAKNTVYLPMNSLKPEDTAGYNCAARTWPWVLGATQDDYWGQGTQVTVSS | low polyreactivity
38 | QFQLVESGGCLVQAGGSLRLSCAASGRTFGWYAMGWYRQAPGKERELVAAISTRGTRTYYADSVKGRFTISRDNAKITDYLQMYSLKPEDTAVYYCNAKRRAVTTAHGIPEEDYWGQGTKVTVSS | high polyreactivity
39 | QFQLVESGGGFVQAGGSLRLSCAASGSIFLYNDMGWYRQAPGKDRELLPAITSDGSTNYADSVKGRFTISRDNAKNTVYLQMNSLKPEDTAVYYCAADALWFYLNWYYGGTAYGYWGQGTQVTVSS | low polyreactivity
40 | QFQLVESGGGLDQAGGSLRISCAASGSTFSYNAIGWYRQAPGKERELVAAITSRGGSTRYADSVKGRFTISRDNAKNTVYLQMNSLNPEDTAVYYCARPYSYYPYSTVNYWGQGTQVTVSS | high polyreactivity
41 | QFQLVESGGGLLQAGGSLRLSCAASGFTFSYNAKGWYRKAPGKERELVAAISSSGGSTYYADSVKGRFTISRDNAKNTVYLQMNILKPEDPSVYYCAVPYLTLYGRSYDYWGQGTQVTVSS | high polyreactivity
